Earlier results in PMC5021969.

Target: CXCL1 (Mus musculus) (UniProt P12850)

Kd: 10 µM
Substance: CXCL1 (from UniProt P12850)
